Reference: the supplement of paper PMC9876800

Tested on: peptide library, one residue held at a place counted from the S/T acceptor
Assay: relative phosphorylation of the sub-library (ratio to the mean residue at this position); human; higher = residue favoured
How it was run: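 Purified recombinant kinases, either human or orthologue constructs, were incubated in 384-well plates with biotinylated degenerate peptide sub-libraries. Each sub-library fixed one residue at one position around a central Ser/Thr. Peptides at 50 μM and 50 μM ATP spiked with γ-32P-ATP were used for 90 min under kinase-specific conditions, and spots on streptavidin membranes were phosphorimaged and quantified by densitometry. Relative sub-library phosphorylation is expressed as a ratio to the mean residue at that position.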

Sequence of TP53RK, construct: Full length (Q96S44 whole entry, looked up): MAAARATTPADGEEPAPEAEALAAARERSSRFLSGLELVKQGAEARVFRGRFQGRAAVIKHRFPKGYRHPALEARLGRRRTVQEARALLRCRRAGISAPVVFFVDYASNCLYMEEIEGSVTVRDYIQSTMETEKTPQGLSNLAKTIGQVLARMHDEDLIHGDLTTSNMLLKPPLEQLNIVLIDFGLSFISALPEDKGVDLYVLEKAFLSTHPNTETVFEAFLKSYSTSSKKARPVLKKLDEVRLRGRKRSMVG
Sequence of TNIK, construct: aa1-314 (Q9UKE5 1-314, looked up): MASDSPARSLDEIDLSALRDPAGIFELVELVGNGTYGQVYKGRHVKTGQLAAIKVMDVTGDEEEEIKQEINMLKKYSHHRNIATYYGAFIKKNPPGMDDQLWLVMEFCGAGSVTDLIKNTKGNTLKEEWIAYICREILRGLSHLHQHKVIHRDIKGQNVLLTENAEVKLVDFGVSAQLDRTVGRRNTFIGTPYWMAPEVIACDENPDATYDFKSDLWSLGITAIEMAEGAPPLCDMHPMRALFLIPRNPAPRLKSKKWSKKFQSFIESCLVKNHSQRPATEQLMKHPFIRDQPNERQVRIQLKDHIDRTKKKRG

STK39, construct: Full length (from UniProt Q9UEW8)
relative phosphorylation
Details | at +1 | at +2 | at +3 | at +4 | at -1 | at -2 | at -3 | at -4 | at -5
A fixed | 0.382 | 0.623 | 0.889 | 0.918 | 0.783 | 0.729 | 0.996 | 1 | 1.13
D fixed | 0.233 | 0.398 | 0.795 | 0.812 | 1.29 | 1.04 | 1.1 | 1.47 | 1.27
E fixed | 0.266 | 0.234 | 0.96 | 0.651 | 1.05 | 0.826 | 0.895 | 1.36 | 1.07
F fixed | 1.17 | 0.908 | 0.901 | 0.899 | 0.908 | 1.05 | 0.783 | 0.88 | 0.983
G fixed | 0.24 | 0.824 | 1.06 | 1.27 | 0.606 | 0.888 | 0.933 | 1.2 | 1.07
H fixed | 1.01 | 4.16 | 1.32 | 0.999 | 1.62 | 1.44 | 1.47 | 1.07 | 0.932
I fixed | 2.61 | 0.696 | 0.654 | 0.739 | 0.638 | 0.409 | 0.615 | 0.672 | 0.679
K fixed | 0.432 | 0.55 | 0.862 | 1.15 | 0.818 | 0.414 | 0.61 | 0.771 | 0.927
L fixed | 1.56 | 0.65 | 1.01 | 0.921 | 1.32 | 0.721 | 0.646 | 0.76 | 0.619
M fixed | 1.33 | 0.873 | 1.05 | 0.952 | 1.18 | 0.744 | 0.763 | 0.832 | 0.866
N fixed | 0.453 | 1.08 | 1.27 | 1.18 | 1.34 | 1.29 | 1.59 | 1.02 | 0.95
P fixed | 0.175 | 0.523 | 0.906 | 1.14 | 0.49 | 0.539 | 0.937 | 1.05 | 1.24
Q fixed | 0.661 | 1.03 | 1.19 | 1.19 | 0.963 | 1.91 | 1.09 | 0.959 | 0.892
R fixed | 0.517 | 0.824 | 1.06 | 1.18 | 1.04 | 0.529 | 0.677 | 0.831 | 0.96
V fixed | 1.84 | 1.04 | 0.72 | 0.694 | 0.584 | 0.457 | 0.623 | 0.769 | 0.911
W fixed | 2.89 | 0.987 | 1.16 | 1.37 | 1.06 | 1.17 | 1.03 | 1.18 | 1.17
Y fixed | 1.23 | 1.61 | 1.19 | 0.933 | 1.3 | 2.84 | 2.24 | 1.17 | 1.34
pThr fixed | 0.677 | 0.474 | 0.767 | 0.493 | 0.867 | 0.793 | 1.11 | 1.19 | 1.25
pTyr fixed | 0.614 | 0.352 | 1 | 0.586 | 1.77 | 1.16 | 1.02 | 1.25 | 1.45

TNIK, construct: aa1-314 (from UniProt Q9UKE5)
relative phosphorylation
Details | at +1 | at +2 | at +3 | at +4 | at -1 | at -2 | at -3 | at -4 | at -5
A fixed | 0.761 | 1.16 | 0.938 | 1.13 | 1.07 | 1.21 | 1.01 | 1.08 | 1.36
D fixed | 0.223 | 0.678 | 0.496 | 0.73 | 0.855 | 0.883 | 0.799 | 0.968 | 0.923
E fixed | 0.249 | 0.591 | 0.389 | 0.656 | 0.682 | 0.577 | 0.76 | 1.1 | 0.885
F fixed | 0.89 | 0.449 | 0.465 | 0.632 | 0.699 | 1.24 | 0.895 | 0.959 | 0.909
G fixed | 0.746 | 1.01 | 0.904 | 1.17 | 1.73 | 1.3 | 1.2 | 1.18 | 1.31
H fixed | 0.916 | 1.28 | 0.94 | 1.06 | 1.52 | 1.19 | 1.47 | 1.13 | 1.02
I fixed | 1.49 | 0.459 | 0.381 | 0.593 | 0.326 | 0.689 | 0.701 | 0.73 | 0.724
K fixed | 1.08 | 2.49 | 3.02 | 2.18 | 1.36 | 0.919 | 1.44 | 1.17 | 1.2
L fixed | 2.4 | 0.685 | 0.777 | 0.636 | 0.803 | 0.595 | 0.67 | 0.751 | 0.619
M fixed | 1.98 | 0.806 | 0.52 | 0.715 | 1.06 | 0.79 | 0.814 | 0.866 | 0.793
N fixed | 0.843 | 0.992 | 0.871 | 1.02 | 1.33 | 1.19 | 1.15 | 0.792 | 1.02
P fixed | 0.338 | 1.05 | 1.14 | 1.23 | 0.65 | 0.736 | 1.08 | 1.18 | 1.41
Q fixed | 0.782 | 1.04 | 0.886 | 1.04 | 0.859 | 0.987 | 0.896 | 0.964 | 0.912
R fixed | 0.995 | 2.4 | 3.23 | 2.2 | 1.7 | 1.19 | 1.33 | 1.17 | 1.22
V fixed | 0.898 | 0.531 | 0.503 | 0.65 | 0.438 | 0.785 | 0.594 | 0.816 | 0.891
W fixed | 1.32 | 0.593 | 0.789 | 0.738 | 0.685 | 1.17 | 1.04 | 0.954 | 0.771
Y fixed | 1.08 | 0.783 | 0.745 | 0.619 | 1.23 | 1.55 | 1.16 | 1.19 | 1.02
pThr fixed | 0.541 | 0.566 | 0.532 | 0.519 | 0.449 | 0.797 | 0.884 | 0.945 | 1
pTyr fixed | 0.42 | 0.505 | 0.638 | 0.581 | 1.02 | 0.969 | 1.22 | 1.15 | 1.03

TP53RK, construct: Full length (from UniProt Q96S44)
relative phosphorylation
Details | at +1 | at +2 | at +3 | at +4 | at -1 | at -2 | at -3 | at -4 | at -5
A fixed | 0.941 | 0.938 | 1.06 | 0.947 | 1.23 | 1.24 | 1.01 | 1.17 | 1.05
D fixed | 1.03 | 1.01 | 0.952 | 1.05 | 0.972 | 0.929 | 1.02 | 0.897 | 0.956
E fixed | 1.09 | 1.08 | 0.988 | 1.16 | 1 | 1.04 | 1.1 | 0.973 | 0.922
F fixed | 1.12 | 1.09 | 1.04 | 0.983 | 0.998 | 0.94 | 1.03 | 0.971 | 0.953
G fixed | 0.918 | 0.956 | 1.08 | 0.958 | 1.3 | 1.49 | 1.08 | 1.12 | 0.976
H fixed | 1.07 | 1.33 | 1.07 | 1.11 | 0.847 | 0.877 | 0.987 | 1.11 | 1.17
I fixed | 0.913 | 0.816 | 0.945 | 0.896 | 0.976 | 1.01 | 0.878 | 0.829 | 0.893
K fixed | 1.05 | 1.01 | 0.99 | 1.09 | 0.864 | 0.848 | 0.985 | 1.07 | 1.12
L fixed | 1.01 | 0.85 | 0.926 | 0.862 | 1.03 | 0.981 | 0.815 | 0.792 | 0.86
M fixed | 0.979 | 0.926 | 0.959 | 0.879 | 1.04 | 1.02 | 1.03 | 0.949 | 0.946
N fixed | 1.01 | 0.998 | 0.947 | 0.955 | 0.933 | 0.927 | 1.02 | 0.966 | 0.961
P fixed | 0.85 | 0.925 | 1.02 | 0.967 | 1.24 | 1.2 | 0.955 | 1.16 | 0.989
Q fixed | 1.04 | 0.975 | 0.953 | 1.08 | 0.897 | 0.906 | 1.06 | 1.04 | 0.903
R fixed | 0.973 | 0.971 | 0.964 | 1.01 | 0.857 | 0.853 | 1 | 1.03 | 1.12
V fixed | 0.917 | 0.885 | 0.949 | 0.838 | 0.964 | 0.989 | 0.894 | 0.931 | 0.962
W fixed | 1.05 | 1.13 | 1.04 | 1.15 | 0.907 | 0.867 | 1.14 | 1.07 | 1.16
Y fixed | 1.05 | 1.11 | 1.12 | 1.07 | 0.939 | 0.892 | 0.996 | 0.922 | 1.05
pThr fixed | 0.977 | 0.952 | 0.886 | 1.03 | 1.06 | 1.08 | 0.987 | 0.973 | 0.943
pTyr fixed | 1.05 | 1.11 | 1.02 | 1.01 | 3.48 | 1.31 | 1.08 | 0.942 | 0.944
